Experimental data reported in publication PMC8639217, “Structure of New Binary and Ternary DNA Polymerase Complexes From Bacteriophage RB69”.

Target: T1, RB69 DNA polymerase exo- (RB69pol) (Enterobacteria phage RB69, UniProt Q38087 1-903, D222A;D327A)
T1 sequence: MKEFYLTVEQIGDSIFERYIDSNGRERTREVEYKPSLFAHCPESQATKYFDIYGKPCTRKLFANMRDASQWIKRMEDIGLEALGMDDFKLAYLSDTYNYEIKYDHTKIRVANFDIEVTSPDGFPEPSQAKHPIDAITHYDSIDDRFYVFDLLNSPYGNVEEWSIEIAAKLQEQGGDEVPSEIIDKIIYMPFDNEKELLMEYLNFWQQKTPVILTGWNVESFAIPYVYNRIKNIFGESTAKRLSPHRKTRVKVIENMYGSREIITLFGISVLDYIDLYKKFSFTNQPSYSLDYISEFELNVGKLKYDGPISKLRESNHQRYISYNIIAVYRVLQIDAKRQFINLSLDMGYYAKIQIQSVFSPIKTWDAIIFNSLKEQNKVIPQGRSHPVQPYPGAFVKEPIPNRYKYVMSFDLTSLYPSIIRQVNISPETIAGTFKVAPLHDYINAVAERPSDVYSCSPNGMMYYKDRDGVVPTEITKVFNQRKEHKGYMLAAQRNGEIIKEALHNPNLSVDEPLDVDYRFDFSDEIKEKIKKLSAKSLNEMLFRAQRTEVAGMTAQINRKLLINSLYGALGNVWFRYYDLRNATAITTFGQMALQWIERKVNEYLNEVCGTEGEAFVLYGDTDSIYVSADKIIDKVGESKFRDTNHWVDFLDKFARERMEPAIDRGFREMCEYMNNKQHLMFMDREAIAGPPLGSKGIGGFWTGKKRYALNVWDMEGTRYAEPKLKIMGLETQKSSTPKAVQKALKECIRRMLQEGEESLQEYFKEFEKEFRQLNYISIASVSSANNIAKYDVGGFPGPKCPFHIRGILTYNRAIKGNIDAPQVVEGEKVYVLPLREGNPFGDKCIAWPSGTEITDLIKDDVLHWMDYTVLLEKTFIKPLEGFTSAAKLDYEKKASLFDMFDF
Experiment: X-ray crystallography (2.2 A); MolA: closed ternary complex with dUpNpp, single Ca2+ at B site; rGMP in NTD; Complex (1:1.2 protein:DNA) in 10 mM Tris-HCl pH 8.0, 50 mM NaCl, 10 mM CaCl2, 5 mM DTT, 5% glycerol, 1 mM dUpNpp, 12 h 4 C; crystals at 21 C in 50 mM Na cacodylate pH 5.0, 2-7% isopropanol, 5 mM MgCl2, 2 mM NaCl, 12 mM spermine
Settings: protein: recombinant; tags: N-terminal His6 removed with TEV protease; 15 bp; 5' overhang 1 nt on primer, 5' overhang 4 nt on template; 1:1

B1: primer/template (P/T) duplex (dsDNA)
DNA 1: GGAGCGGACTGCTTAC
DNA 2: TCAAGTAAGCAGTCCGCTC
- binding result: binds
